pKd: −log10 of the molar value.
Molecular target: Epidermal Growth Factor Receptor (EGFR) (human (endogenous in A431)) (UniProt P00533)
Experiment: parameter fitting of an ODE model (PottersWheel) and a stochastic simulation (SPS) to immunogold electron microscopy counts; estimated constants; adaptor immunogold label on plasma membrane sheets of A431 cells over a time course of EGF, 20 nM EGF in the model; docking rate multiplied by a scaling factor f and adjusted to match the data

pKd: 5.67
koff: 11.7 s⁻¹
kon: 5.5e+06 M⁻¹ s⁻¹
Substance: Stat5 (from UniProt P42229 1-794) (natural protein)

From publication PMC2877007
